Here are results for one molecule from patent US12679888B2, “IL-18 binding protein (IL-18BP) and antibodies for treating inflammatory diseases” (AB2 BIO SA, priority 2015, dated 2026).

Like-named read-outs stand apart in the source and are kept apart here.

Data set [1] deals with T1, IL-18 (Mus musculus, UniProt P70380).
T1 sequence (P70380 36-192): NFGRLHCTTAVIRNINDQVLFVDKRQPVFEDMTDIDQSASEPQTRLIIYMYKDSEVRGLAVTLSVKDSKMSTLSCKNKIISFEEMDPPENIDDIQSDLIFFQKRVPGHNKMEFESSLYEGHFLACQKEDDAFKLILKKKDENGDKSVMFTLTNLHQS
Description: Dissociation constant (Kd) used for dose selection, mouse. It is filed as binding. The protocol: (§1) No validated animal model has been described for this condition. In the collagen-induced arthritis murine model the active dose for r-hIL-18BP administered intraperitoneally (i.p.) was determined to be 1 mg/Kg body weight. […] Altogether the expected pharmacologically active dose for a “humanized mice” treated by s.c. route with r-hIL-18BP is round 4.85 mg/kg. […] Although the guidance was initially written for extrapolating animal doses to healthy volunteers, its principles can be applied also to patients. […] Those doses will be likely also ineffective in AoSD patients considering that blood levels of IL-18 in AoSD are higher than those reported in the two above mentioned conditions.

For data set [2], the target named is T2, IL-18 (Homo sapiens, UniProt Q14116).
T2 sequence (Q14116 37-193): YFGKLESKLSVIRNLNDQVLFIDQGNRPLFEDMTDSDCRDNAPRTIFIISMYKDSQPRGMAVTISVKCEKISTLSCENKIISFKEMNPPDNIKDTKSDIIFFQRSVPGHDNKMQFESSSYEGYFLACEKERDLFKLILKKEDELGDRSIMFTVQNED
Description: Dissociation constant (Kd) used for dose selection, human. It is filed as binding. As to the method: as §1

A short description of data set [3]: Bioavailability of r-hIL-18BP by i.p. and s.c. route. It is filed as in vivo, mouse. As to the method: as §1
The test system of another data set is RA and Pso patients. Briefly: Previous human studies with r-hIL-18BP in RA and Pso patients. Format: in vivo. The conditions noted are these: 20 mg 3 times a week. The protocol: as §1
The conditions of data set [4]: in vivo.
In data set [5] the target is T2, IL-18. Description: Titration of free IL-18 as a function of IL-18BP level (free IL-18 ELISA). Format: binding. More on the design: purchased. The conditions noted are these: 400 pg/mL IL-18 in PBS, 5% BSA. As to the method: Microplate wells are coated with an appropriate volume phosphate buffer saline solution containing recombinant human IL-18BP (r-hIL-18BP) as shown in SEQ ID NO 7, and less than 30% of N-terminal and/or C-terminal deletion variants of IL-18BP. A description of the r-hIL-18BP is provided in section 6.6.1 below. A description of the purification protocol is provided in section 6.6.2. Plates are incubated for a period of time at 4° C. and then stabilized with a blocking buffer containing bovine serum albumin or other appropriate blocking agents. Once the reaction is finished, microplates are sealed and stored at 4° C. until used for detection of free IL-18. […]
As an example, for a final reaction volume of 100 μl, dispense first 80 μl of biotin/antibody conjugate. […] The resulting reactions are then monitored with a microplate reader at an appropriate nanometer wavelength for absorbance or fluorescence of the produced reagent.
A constant quantity of recombinant IL-18 was titrated as a function of different and well-defined quantities of IL-18BP in order to understand when free IL-18 is not any more detectable. A PBS solution of 400 pg/mL IL-18 supplemented by 5% BSA was spiked with defined quantities of IL-18BP ranging from 0 to 10′000 pg/mL. The molar ratios were calculated according to the respective molecular weight of IL-18 and IL-18BP. […]
On the technique in general: ELISA stands for enzyme-linked immunosorbent assay.

Data set [6] has as its target T2, IL-18. To be noted: cited from earlier work.

By Kd is commonly meant the equilibrium constant for the complex coming apart. By bioavailability is commonly meant the share of a dose that reaches the circulation, judged against a reference dose that is usually intravenous.

B1: IL-18BP: soluble glycoprotein of 164 amino acids produced from a Chinese Hamster Ovary cell line; isoform a, SEQ ID NO 7 (protein, listed as Homo sapiens)
chain: TPVSQTTTAATASVRSTKDPCPSQPPVFPAAKQCPALEVTWPEVEVPLNGTLSLSCVACSRFPNFSILYWLGNGSFIEHLPGRLWEGSTSRERGSTGTQLCKALVLEQLTPALHSTNFSCVLVDPEQVVQRHVVLAQLWAGLRATLPPTQEALPSSHSSPQQQG
modifications: CHO glycosylation; MISC_FEATURE - Human interleukin-18 binding protein isoform a
With B1, the Kd is 400 pM with IL-18 [1]; 160 pM with IL-18 [2]; 400 pM with IL-18 [6] (BIAcore measurements, read-out: KD reported in the literature (Kim et al 2000)); 400 pM with IL-18 [6] (IL-18-IL-18BP complex, stoichiometry 1:1, read-out: Dissociation constant KD as calculated by Kim et al 2000). Besides, the bioavailability is reported as around 100% in data set [3] (i.p. route) and 55% in data set [3] (s.c. route). In addition, in the data set on RA and Pso patients, the clinical efficacy entry is “no efficacy”. The molecule also registered a median half-life in data set [4] of around 40 h. In the data set with IL-18 [5], the “IL-18BP concentration at which 400 pg/mL IL-18 detection is near background detection level” value is listed as at least 6000 pg/mL.
